Laboratory results published in publication PMC11827763, “A Gold Nanoparticle-based Aptasensor for Specific Detection of CA125”.

Biological target: CA125 (carbohydrate antigen 125) (UniProt Q8WXI7 1-14451)
Assay: AuNP aggregation aptasensor (A660/A520); 200 nM aptamer, citrate AuNPs ~13 nm, NaCl 1 M stock added after binding; linear 15-160 U/mL, LOD 14.41 U/mL; 50 uL CA125 (15-160 U/mL) + 50 uL aptamer (200 nM), 30 min, room temperature; then 50 uL AuNPs 5 min, 10 uL 1 M NaCl 5 min; buffer and pH not stated
Conditions: protein: commercial; predicted stem-loop

## TCACTATAGGGAGACAAGAATAAACGCTCAA (ssDNA) [CA125 aptamer (31-mer)]
  binding result: binds
